Laboratory results from patent US20150086555A1.

What was measured:
Settings in all cases: remark: other sources report otherwise
[1] = biological target: recombinant homotrimeric HA A/Hong Kong/1073/99 H9N2 (Influenza A virus A/Hong Kong/1073/99 (H9N2)); assay: protein microarray, purified IgG, trimeric HA
[2] = biological target: recombinant homotrimeric HA A/Hong Kong/156/97 H5N1 (Influenza A virus A/Hong Kong/156/97 (H5N1)); assay: protein microarray, purified IgG, trimeric HA
[3] = biological target: recombinant homotrimeric HA A/Hong Kong/2108/03 H9N2 (Influenza A virus A/HK/2108/2003(H9N2)); assay: protein microarray, purified IgG, trimeric HA
[4] = biological target: recombinant homotrimeric HA A/Egypt/3300-NAMRU3/08 H5N1 (Influenza A virus A/Egypt/3300-NAMRU3/2008(H5N1)); assay: protein microarray, purified IgG, trimeric HA
[5] = biological target: recombinant homotrimeric HA A/Wisconsin/67/05 H3N2 (Influenza A virus A/Wisconsin/67/2005(H3N2)); assay: protein microarray, purified IgG, trimeric HA
[6] = biological target: recombinant homotrimeric HA A/Japan/305/57 H2N2 (Influenza A virus A/Japan/305/1957(H2N2)); assay: protein microarray, purified IgG, trimeric HA
[7] = biological target: recombinant homotrimeric HA A/Netherlands/219/03 H7N7 (Influenza A virus A/Netherlands/219/03(H7N7)); assay: protein microarray, purified IgG, trimeric HA
[8] = biological target: recombinant homotrimeric HA A/Indonesia/5/05 H5N1 (Influenza A virus A/Indonesia/5/2005(H5N1)); assay: protein microarray, purified IgG, trimeric HA
[9] = biological target: recombinant homotrimeric HA A/California/4/09 H1N1 (Influenza A virus A/California/04/2009(H1N1)); assay: protein microarray, purified IgG, trimeric HA
[10] = biological target: recombinant homotrimeric HA A/Solomon Islands/3/06 H1N1 (Influenza A virus A/Solomon Islands/3/2006(H1N1)); assay: protein microarray, purified IgG, trimeric HA
[11] = biological target: recombinant homotrimeric HA A/South Carolina/1/18 H1N1 (Influenza A virus A/South Carolina/1/18 (H1N1)); assay: protein microarray, purified IgG, trimeric HA
[12] = biological target: recombinant homotrimeric HA A/Vietnam/1203/04 H5N1 (Influenza A virus A/VietNam/1203/2004(H5N1)); assay: protein microarray, purified IgG, trimeric HA
[13] = biological target: recombinant homotrimeric HA A/northern shoveler/California/HKWF115/07 H6N4 (Influenza A virus A/northern shoveler/California/HKWF115/2007(H6N1)); assay: protein microarray, purified IgG, trimeric HA
[14] = biological target: recombinant homotrimeric HA A/chicken/Vietnam/NCVD-016/08 H5N1 (Influenza A virus A/chicken/Vietnam/NCVD-016/2008(H5N1)); assay: protein microarray, purified IgG, trimeric HA
[15] = biological target: recombinant soluble homotrimeric HA of A/Japan/305/57 (H2N2) (Influenza A virus A/Japan/305/1957(H2N2)); assay: HA microarray, BCC supernatant
[16] = biological target: recombinant soluble homotrimeric HA of A/California/4/09 (H1N1) (Influenza A virus A/California/04/2009(H1N1)); assay: HA microarray, BCC supernatant
[17] = biological target: recombinant soluble homotrimeric HA of A/Hong Kong/2108/03 (H9N2) (Influenza A virus A/HK/2108/2003(H9N2)); assay: HA microarray, BCC supernatant
[18] = biological target: recombinant soluble homotrimeric HA of A/Indonesia/5/05 (H5N1) (Influenza A virus A/Indonesia/5/2005(H5N1)); assay: HA microarray, BCC supernatant
[19] = biological target: recombinant soluble homotrimeric HA of A/Anhui/1/05 (H5N1) (Influenza A virus A/Anhui/1/2005(H5N1)); assay: HA microarray, BCC supernatant
[20] = biological target: recombinant soluble homotrimeric HA of A/Vietnam/1203/04 (H5N1) (Influenza A virus A/VietNam/1203/2004(H5N1)); assay: HA microarray, BCC supernatant
[21] = biological target: recombinant soluble homotrimeric HA of A/swine/Ontario/01911-2/99 (H4N6) (Influenza A virus A/Swine/Ontario/01911-2/99 (H4N6)); assay: HA microarray, BCC supernatant
[22] = biological target: recombinant soluble homotrimeric HA of A/duck/Yangzhou/02/05 (H8N4) (Influenza A virus A/duck/Yangzhou/02/2005(H8N4)); assay: HA microarray, BCC supernatant
[23] = biological target: recombinant soluble homotrimeric HA of A/Netherlands/219/03 (H7N7) (Influenza A virus A/Netherlands/219/03(H7N7)); assay: HA microarray, BCC supernatant
[24] = biological target: recombinant soluble homotrimeric HA of A/chicken/Vietnam/NCVD-016/08 (H5N1) (Influenza A virus A/chicken/Vietnam/NCVD-016/2008(H5N1)); assay: HA microarray, BCC supernatant
[25] = biological target: recombinant soluble homotrimeric HA of A/northern shoveler/California/HKWF115/07 (H6) (Influenza A virus A/northern shoveler/California/HKWF115/2007(H6N1)); assay: HA microarray, BCC supernatant
[26] = biological target: recombinant soluble homotrimeric HA of A/Wisconsin/67/05 (H3N2) (Influenza A virus A/Wisconsin/67/2005(H3N2)); assay: HA microarray, BCC supernatant
[27] = biological target: recombinant soluble homotrimeric HA of A/Solomon Islands/3/06 (H1N1) (Influenza A virus A/Solomon Islands/3/2006(H1N1)); assay: HA microarray, BCC supernatant
[28] = biological target: recombinant homotrimeric HA A/Anhui/1/05 H5N1 (Influenza A virus A/Anhui/1/2005(H5N1)); assay: protein microarray, purified IgG, trimeric HA

B1: TCN-530 (5248_H10a) (antibody, V domains shown)
VH: QVQLVQSGAEVRKPGSSVKVSCKASGGPFMSYAIGWVRQAPGQGLEWMGGINPVFGRPHYAQKFQGRVTIATDDSTKTSYMELSSLTSEDTGMYYCASRYSRSSPGTFESWGQGTLVTVSS
VL: EIVMTQFPATLSVSPGERVTLSCRASQSVSNNLAWYQQKPGQPPRLLIYDASTRATGVPAKFSGTGSGTEFTLSISSLQSEDFAVYYCQQYHNWPPSYSFGLGTKLEIK
[1]
  Trimeric HA Binding: RLU: 874 RLU
[2]
  Trimeric HA Binding: RLU: 14000 RLU
[3]
  Trimeric HA Binding: RLU: 169 RLU
[4]
  Trimeric HA Binding: RLU: 12300 RLU
[5]
  Trimeric HA Binding: RLU: 132 RLU
[6]
  Trimeric HA Binding: RLU: 9040 RLU
[7]
  Trimeric HA Binding: RLU: 402 RLU
[8]
  Trimeric HA Binding: RLU: 10900 RLU
[9]
  Trimeric HA Binding: RLU: 14200 RLU
[10]
  Trimeric HA Binding: RLU: 8570 RLU
[11]
  Trimeric HA Binding: RLU: 7360 RLU
[12]
  Trimeric HA Binding: RLU: 19100 RLU
[13]
  Trimeric HA Binding: RLU: 9010 RLU
[14]
  Trimeric HA Binding: RLU: 2050 RLU
[15]
  Trimeric HA Binding: RLU: 47000 RLU
[16]
  Trimeric HA Binding: RLU: 46600 RLU
[17]
  Trimeric HA Binding: RLU: 486 RLU
[18]
  Trimeric HA Binding: RLU: 39800 RLU
[19]
  Trimeric HA Binding: RLU: 11900 RLU
[20]
  Trimeric HA Binding: RLU: 7150 RLU
[21]
  Trimeric HA Binding: RLU: 2740 RLU
[22]
  Trimeric HA Binding: RLU: 41700 RLU
[23]
  Trimeric HA Binding: RLU: 2900 RLU
[24]
  Trimeric HA Binding: RLU: 48300 RLU
[25]
  Trimeric HA Binding: RLU: 45300 RLU
[26]
  Trimeric HA Binding: RLU: 36800 RLU
[27]
  Trimeric HA Binding: RLU: 32800 RLU

B2: TCN-543 (5081_G23) (antibody, V domains shown)
VH: QVHLVQSGAEVRKPGDSVKVSCKTSGYTFSTYPVAWVRQVPGQGLEWMGWISTYNGNTNFAQNFQGRVTLTTDTTTNTAYMEVRSLKFDDTAVYYCARVEGSYRDFWNNQNRFDPWGQGTLVTVSS
VL: SYVLTQPPSVSVAPGQTARISCGGSNIGGKSVHWYQQKPGQAPVLVVYDDSGRPSGIPERFSGSNSGDTATLTISRVEAGDEADYFCQVWDNFGGVFGTGTKVTVL
[1]
  Trimeric HA Binding: RLU: 9160 RLU
[28]
  Trimeric HA Binding: RLU: 601 RLU
[2]
  Trimeric HA Binding: RLU: 112 RLU
[3]
  Trimeric HA Binding: RLU: 135 RLU
[4]
  Trimeric HA Binding: RLU: 580 RLU
[5]
  Trimeric HA Binding: RLU: 302 RLU
[6]
  Trimeric HA Binding: RLU: 14000 RLU
[7]
  Trimeric HA Binding: RLU: 162 RLU
[8]
  Trimeric HA Binding: RLU: 91 RLU
[10]
  Trimeric HA Binding: RLU: 18300 RLU
[11]
  Trimeric HA Binding: RLU: 259 RLU
[12]
  Trimeric HA Binding: RLU: 640 RLU
[13]
  Trimeric HA Binding: RLU: 101 RLU
[15]
  Trimeric HA Binding: RLU: 197 RLU
[17]
  Trimeric HA Binding: RLU: 131 RLU
[20]
  Trimeric HA Binding: RLU: 488 RLU
[21]
  Trimeric HA Binding: RLU: 428 RLU
[23]
  Trimeric HA Binding: RLU: 661 RLU
[25]
  Trimeric HA Binding: RLU: 2130 RLU
[26]
  Trimeric HA Binding: RLU: 1360 RLU
[27]
  Trimeric HA Binding: RLU: 511 RLU

B3: TCN-550 (5096_F06) (antibody, V domains shown)
VH: QVQLQESGPGLVKPSETLSLTCTVSGASINSHYWSWIRQPPGKGLEWIGYVYYSGSTTYNPSLKSRVTLSVDTSKNQFSLNLSSVTAADTAFYYCARHPYDVLTGSGDWFDPWGQGTLVTVSS
VL: SYVLTQAPSVSVAPGQTARITCGGNAIGSKKVHWYQHKAGQAPVLVVYDDTDRPSGIPERFSGSNSWSTATLTINRVEAGDEADYYCQVWDFTIDHVVFGGGTKLTVL
[1]
  Trimeric HA Binding: RLU: 413 RLU
[28]
  Trimeric HA Binding: RLU: 4780 RLU
[2]
  Trimeric HA Binding: RLU: 304 RLU
[3]
  Trimeric HA Binding: RLU: 150 RLU
[4]
  Trimeric HA Binding: RLU: 3530 RLU
[5]
  Trimeric HA Binding: RLU: 21300 RLU
[6]
  Trimeric HA Binding: RLU: 499 RLU
[7]
  Trimeric HA Binding: RLU: 223 RLU
[9]
  Trimeric HA Binding: RLU: 238 RLU
[10]
  Trimeric HA Binding: RLU: 752 RLU
[11]
  Trimeric HA Binding: RLU: 104 RLU
[12]
  Trimeric HA Binding: RLU: 829 RLU
[13]
  Trimeric HA Binding: RLU: 106 RLU
[14]
  Trimeric HA Binding: RLU: 295 RLU
[15]
  Trimeric HA Binding: RLU: 201 RLU
[16]
  Trimeric HA Binding: RLU: 454 RLU
[17]
  Trimeric HA Binding: RLU: 2280 RLU
[18]
  Trimeric HA Binding: RLU: 9100 RLU
[19]
  Trimeric HA Binding: RLU: 1210 RLU
[20]
  Trimeric HA Binding: RLU: 277 RLU
[21]
  Trimeric HA Binding: RLU: 195 RLU
[22]
  Trimeric HA Binding: RLU: 407 RLU
[23]
  Trimeric HA Binding: RLU: 939 RLU
[24]
  Trimeric HA Binding: RLU: 361 RLU
[25]
  Trimeric HA Binding: RLU: 964 RLU
[26]
  Trimeric HA Binding: RLU: 26300 RLU
[27]
  Trimeric HA Binding: RLU: 204 RLU

B4: TCN-535 (5246_P19) (antibody, V domains shown)
VH: QVQLVQSGSEVKKPGTSVKVSCTASGSVFTNYGISWVRQAPGQGLEWMGGIIPLFGAAKYAQKFQGRVTITADESTKTVYMELSRLTSKDTAIYFCAKAPRVYEYYFDQWGQGTPVTVSS
VL: EIVLTQSPGTLSLSPGERATLSCRASQSVSSSQLAWYQQKPGQAPRLIIYGASTRATGIPDRFSGSGSGTDFTLTIGRLEPEDFAVFFCQQYSTSPPTFGQGTKVDFK
[1]
  Trimeric HA Binding: RLU: 3470 RLU
[28]
  Trimeric HA Binding: RLU: 6700 RLU
[2]
  Trimeric HA Binding: RLU: 13200 RLU
[4]
  Trimeric HA Binding: RLU: 18100 RLU
[5]
  Trimeric HA Binding: RLU: 148 RLU
[6]
  Trimeric HA Binding: RLU: 13000 RLU
[7]
  Trimeric HA Binding: RLU: 339 RLU
[8]
  Trimeric HA Binding: RLU: 17900 RLU
[9]
  Trimeric HA Binding: RLU: 17200 RLU
[10]
  Trimeric HA Binding: RLU: 11300 RLU
[11]
  Trimeric HA Binding: RLU: 5660 RLU
[12]
  Trimeric HA Binding: RLU: 20800 RLU
[13]
  Trimeric HA Binding: RLU: 5880 RLU
[14]
  Trimeric HA Binding: RLU: 2630 RLU
[15]
  Trimeric HA Binding: RLU: 26100 RLU
[16]
  Trimeric HA Binding: RLU: 48600 RLU
[17]
  Trimeric HA Binding: RLU: 861 RLU
[18]
  Trimeric HA Binding: RLU: 45600 RLU
[19]
  Trimeric HA Binding: RLU: 6880 RLU
[20]
  Trimeric HA Binding: RLU: 4740 RLU
[21]
  Trimeric HA Binding: RLU: 5950 RLU
[22]
  Trimeric HA Binding: RLU: 36600 RLU
[23]
  Trimeric HA Binding: RLU: 4760 RLU
[24]
  Trimeric HA Binding: RLU: 50000 RLU
[25]
  Trimeric HA Binding: RLU: 48200 RLU
[26]
  Trimeric HA Binding: RLU: 34300 RLU
[27]
  Trimeric HA Binding: RLU: 39400 RLU
